{"source": "paper PMC9278091", "about": "“ATP‐independent molecular chaperone activity generated under reducing conditions” (Protein Science : A Publication of the Protein Society, 2022)", "binders": {"B1": {"name": "Bri2 BRICHOS domain (residues 113-231 of full-length human Bri2), wild type (domain or fragment, UniProt Q9Y287 113-231, looked up)", "chain": "QTIEENIKIFEEEEVEFISVPVPEFADSDPANIVHDFNKKLTAYLDLNLDKCYVIPLNTSIVMPPRNLLELLINIKAGTYLPQSYLIHEHMVITDRIENIDHLGFFIYRLCHDKETYKL", "notes": "Bri2 (integral membrane protein 2B), human, BRICHOS domain, residues 113-231 of full-length human Bri2; In the monomer Cys164 and Cys223 form an intramolecular disulfide; dimers and oligomers have intermolecular disulfides; also called Bri2 BRICHOS monomers; Bri2 BRICHOS dimers; source: E. coli, expressed and purified as previously described (monomer, dimer and oligomer species isolated)"}, "B2": {"name": "Bri2 BRICHOScys mutant C164S without NT* tag (Cys223-Cys223 dimer) (domain or fragment, human, UniProt Q9Y287 113-231, looked up)", "chain": "B1 chain with C52S", "modifications": "intermolecular Cys223-Cys223 homodisulfide", "notes": "Bri2 (integral membrane protein 2B), human, BRICHOS domain, residues 113-231 of full-length human Bri2, C164S; also called Cys223 dimers; source: E. coli, dimer fraction purified without NT* solubility tag"}, "B3": {"name": "NT*-Bri2 BRICHOScys mutant C164S (NT*-Bri2 BRICHOScys 223-223 dimer) (domain or fragment, human, UniProt Q9Y287 113-231, looked up)", "chain": "B1 chain with C52S", "modifications": "intermolecular Cys223-Cys223 homodisulfide", "notes": "Bri2 (integral membrane protein 2B), human, BRICHOS domain, residues 113-231 of full-length human Bri2, C164S; NT* fusion kept as a means to tell the species apart by size; also called Cys223 dimers; source: E. coli, dimer fraction purified with NT* solubility tag"}, "B4": {"name": "NT*-Bri2 BRICHOScys mutant C223S (NT*-Bri2 BRICHOScys 164-164 dimer) (domain or fragment, human, UniProt Q9Y287 113-231, looked up)", "chain": "B1 chain with C111S", "modifications": "intermolecular Cys164-Cys164 homodisulfide", "notes": "Bri2 (integral membrane protein 2B), human, BRICHOS domain, residues 113-231 of full-length human Bri2, C223S; NT* fusion kept as a means to tell the species apart by size; also called Cys164 dimers; source: E. coli, dimer fraction purified with NT* solubility tag"}, "B5": {"name": "Bri2 BRICHOS Thr to Trp (T206W) mutant (domain or fragment, human, UniProt Q9Y287 113-231, looked up)", "chain": "B1 chain with T94W", "notes": "Bri2 (integral membrane protein 2B), human, BRICHOS domain, residues 113-231 of full-length human Bri2, T206W; also called Thr to Trp Bri2 BRICHOS mutant; source: E. coli, expressed and purified as previously described"}}, "key": {"[1]": {"target": "the molecule itself", "experiment": "SEC; Bri2 BRICHOS monomers, non-incubated or incubated at 37°C without reductant; 20 mM phosphate buffer, 0.2 mM EDTA, pH 8; monomer to dimers and tetramers"}, "[2]": {"target": "B3", "experiment": "non-reducing SDS-PAGE and Western blot; dimer fractions of Bri2 BRICHOScys mutants with or without NT* mixed 1:1 at 10 μM final protein, 20 mM phosphate buffer pH 8, 0.2 mM EDTA, 0.02% NaN3, 2.5x thrombin inhibitor, 37°C overnight; mixed disulfide band", "conditions": "both partners purified"}, "[3]": {"target": "the molecule itself", "experiment": "non-reducing SDS-PAGE and Western blot; dimer fractions of the NT*-Bri2 BRICHOScys mutants under non-reducing conditions"}, "[4]": {"target": "the molecule itself", "experiment": "other fluorescence titration; apparent; tryptophan fluorescence emission change upon dimer formation of the T206W mutant, excitation 280 nm, emission 300-400 nm, 96 well plate; single exponential fit; monomer to dimer/assembly"}}, "note": "Substitutions are numbered along the chain they refer to. Names and notes keep the numbering of the source. Values joined by “and” are separate entries in the source; they are usually repeats but may differ in a detail not shown here. Equal values may be shown once.", "data": [{"binder": "B1", "values": [{"measurement": "stoichiometry N", "setting": "[1]", "result": "2 and 4"}]}, {"binder": "B2", "values": [{"measurement": "binding result", "setting": "[2]", "result": "binds"}]}, {"binder": "B3", "values": [{"measurement": "binding result", "setting": "[3]", "result": "binds"}]}, {"binder": "B4", "values": [{"measurement": "binding result", "setting": "[3]", "result": "binds"}]}, {"binder": "B5", "values": [{"measurement": "Kd", "setting": "[4]", "result": "1000 ± 200", "unit": "nM"}]}]}
